For twelve molecules, Relative cAMP EC50, cAMP Rel EC50 (1% HSA) and cAMP Rel EC50, nM (1% HSA) results are on record in US20240270821A1, “GIP/GLP1/GCG TRI-RECEPTOR AGONISTS AND USES THEREOF” (priority 2023, published 2024).

Common to all, as to assay: cell-based or functional assay
The target of assay [1] is hGLP-1R (Homo sapiens, UniProt P43220).
The target in assay [2] is T1, human GIP receptor (human) (UniProt P48546).
T1 sequence (looked up): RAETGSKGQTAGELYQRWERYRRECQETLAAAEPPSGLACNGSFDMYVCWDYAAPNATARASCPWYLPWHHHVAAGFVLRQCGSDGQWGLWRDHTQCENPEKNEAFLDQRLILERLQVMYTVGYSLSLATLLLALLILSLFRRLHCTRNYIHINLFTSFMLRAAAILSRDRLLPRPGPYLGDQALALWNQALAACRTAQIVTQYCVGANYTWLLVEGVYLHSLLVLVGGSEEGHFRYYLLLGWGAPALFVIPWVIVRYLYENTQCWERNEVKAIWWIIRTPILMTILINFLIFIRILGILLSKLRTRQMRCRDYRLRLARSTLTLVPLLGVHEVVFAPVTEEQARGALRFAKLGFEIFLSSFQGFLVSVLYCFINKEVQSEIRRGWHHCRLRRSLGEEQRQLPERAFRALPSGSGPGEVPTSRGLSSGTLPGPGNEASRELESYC

The target of assay [3] is human glucagon receptor (human) (UniProt P47871).
Chain of human glucagon receptor (human) (P47871 26-477): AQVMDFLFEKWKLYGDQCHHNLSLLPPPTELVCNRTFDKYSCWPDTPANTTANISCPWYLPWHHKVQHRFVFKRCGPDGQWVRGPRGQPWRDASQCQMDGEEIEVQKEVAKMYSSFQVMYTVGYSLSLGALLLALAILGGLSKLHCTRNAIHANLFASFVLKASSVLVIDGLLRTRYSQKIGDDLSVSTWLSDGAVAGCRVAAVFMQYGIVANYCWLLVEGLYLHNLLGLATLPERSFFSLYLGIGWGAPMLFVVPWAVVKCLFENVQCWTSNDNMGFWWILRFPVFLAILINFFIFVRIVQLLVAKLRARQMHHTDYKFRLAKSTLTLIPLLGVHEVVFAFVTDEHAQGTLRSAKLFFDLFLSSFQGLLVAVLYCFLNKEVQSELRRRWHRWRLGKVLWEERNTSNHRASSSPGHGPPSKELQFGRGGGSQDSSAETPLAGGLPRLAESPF

Starred links: 1 amine or outer side, 2 acyl side, 3 side chain; linkers in the order of their positions; H or OH if unused. Non-standard residues stand in square brackets, D forms with d. Groups on a side chain read outwards from the residue. No end group written: not given here. *: point of attachment. C18 diacid = O=C(O)CCCCCCCCCCCCCCCCC(=O)*; γGlu = O=C(O)[C@H](CCC(=O)[*:2])N[*:1]; αMe4Pal = C[C@](N)(Cc1ccncc1)C(=O)O; 4Pal = N[C@@H](Cc1ccncc1)C(=O)O; αMeL = CC(C)C[C@](C)(N)C(=O)O; Orn = NCCC[C@H](N)C(=O)O; Dab = NCC[C@H](N)C(=O)O; Aib = CC(C)(N)C(=O)O

Chain of hGLP-1R (P43220 24-463): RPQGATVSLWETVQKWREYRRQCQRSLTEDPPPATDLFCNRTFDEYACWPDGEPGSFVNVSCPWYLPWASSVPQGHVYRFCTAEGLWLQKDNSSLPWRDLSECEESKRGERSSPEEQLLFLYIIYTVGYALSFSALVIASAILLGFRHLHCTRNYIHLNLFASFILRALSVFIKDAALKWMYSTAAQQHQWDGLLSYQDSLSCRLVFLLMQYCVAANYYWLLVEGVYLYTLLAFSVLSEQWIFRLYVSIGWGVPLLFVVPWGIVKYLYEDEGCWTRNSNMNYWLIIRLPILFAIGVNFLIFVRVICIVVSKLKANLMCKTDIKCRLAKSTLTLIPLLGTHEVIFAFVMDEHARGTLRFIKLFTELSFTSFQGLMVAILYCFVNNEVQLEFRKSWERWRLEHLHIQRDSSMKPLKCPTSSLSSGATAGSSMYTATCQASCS

B1: Example 1055 (peptide)
chain: Y[Aib]QGTFTSD[4Pal]S[Dab][αMeL]LD[Orn]K([γGlu-γGlu-C18 diacid])AQ[αMe4Pal]AFIE[αMe4Pal]LLAGGPSSGAPPPEGSEE-NH2
Consider B1, for which the Relative cAMP EC50 worked out at 14.6 nM in assay [1], 0.366 nM in assay [2] and 1.88 nM in assay [3]. Also, the cAMP Rel EC50 (1% HSA) in assay [2] is 78.9 nM; in assay [3] it was 450 nM.

B2: Example 1040 (peptide)
chain: YXQGTFTSDFSQXLDXKAQXAFIEXLLEAGPSSGAPPPSGSEEE
modifications: Aib, αMeL, Orn, Me4Pal; acylated K; C-terminal amide; synthetic construct; SITE 2: note = 2-Aminoisobutyric Acid; SITE 13: note = alpha-methyl-leucine; SITE 16: note = L-ornithine; SITE 17: note = Lysine is chemically modified through conjugation of the epsilon-amino group of the Lysine side chain with (gamma-Glu)2-CO-(CH2)16-CO2H; SITE 20: note = 2-Am
On to B2, for which the results for the cAMP Rel EC50, nM (1% HSA) in assay [1], in assay [2] and in assay [3] were 322 nM, 20.8 nM and 2020 nM, respectively.

B3: Example 1054 (peptide)
chain: Y[Aib]QGTFTSD[4Pal]S[Dab][αMeL]LD[Orn]K([γGlu-γGlu-C18 diacid])AQ[Aib]AFIE[αMe4Pal]LLAGGPSSGAPPPEGSEE-NH2
On to B3, for which the Relative cAMP EC50 in assay [1] was found to be 9.53 nM; in assay [2], 0.797 nM; in assay [3], 8.06 nM. The cAMP Rel EC50 (1% HSA) in assay [2] came to 79.4 nM; in assay [3], 1630 nM.

B4: Example 1041 (peptide)
chain: YXQGTFTSDXSQXLDXKAQXAFIEXLIEGGPSSGAPPPSGSEE
modifications: Aib, 4Pal, Orn, Me4Pal, αMeY; acylated lysine; amide; synthetic construct; SITE 2: note = 2-Aminoisobutyric Acid; SITE 10: note = 3-(4-Pyridyl)-L-alanine; SITE 13: note = alpha-methyl-leucine; SITE 16: note = L-ornithine; SITE 17: note = Lysine is chemically modified through conjugation of the epsilon-amino group of the Lysine side chain with (2-[2-(2-
For B4, the cAMP Rel EC50, nM (1% HSA) was 316 nM in assay [1], 75.7 nM in assay [2] and 1720 nM in assay [3].

B5: Example 1058 (peptide)
chain: YXQGTFTSDXSQXLDXKAQXAFIEXLLEGGPSSGAPPPSGSEE
modifications: non-natural residues; lysine acylated γGlu-C18 diacid; C-terminal amide; synthetic construct; SITE 2: note = 2-Aminoisobutyric Acid; SITE 10: note = 3-(4-Pyridyl)-L-alanine; SITE 13: note = alpha-methyl-leucine; SITE 16: note = L-ornithine; SITE 17: note = Lysine is chemically modified through conjugation of the epsilon-amino group of the Lysine side chain with D-Glutami
B5: the values for the Relative cAMP EC50 in assay [1], in assay [2] and in assay [3] were 4.48 nM, 0.139 nM and 5.8 nM, respectively. The cAMP Rel EC50 (1% HSA) in assay [2] came out at 45.6 nM; in assay [3] it was 1450 nM.

B6: Example 1061 (peptide)
chain: YXQGTFTSDXSXXLDXKAQXAFIEYLIAGGPSSGAPPPSGSEE
modifications: non-natural residues, C-terminal amide, acylated Lys with fatty diacid; synthetic construct; SITE 2: note = 2-Aminoisobutyric Acid; SITE 10: note = 3-(4-Pyridyl)-L-alanine; SITE 12: note = …; SITE 13: note = alpha-methyl-leucine; SITE 16: note = L-ornithine; SITE 17: note = Lysine is chemically modified through conjugation of the epsilon-amino group of the Lys
Take B6: the Relative cAMP EC50 in assay [1] came to 4.56 nM; in assay [2] it was 0.656 nM; in assay [3] it was 17.3 nM. Further, the cAMP Rel EC50 (1% HSA) in assay [2] was found to be 55.6 nM; in assay [3], 2910 nM.

B7: Example 1046 (peptide)
chain: YXQGTFTSDXSQXLDXKAQXQFIEXLIEGGPSSGAPPPSGSEE
modifications: non-natural residues, C-terminal amide, acylated Lys with fatty diacid; synthetic construct; SITE 2: note = 2-Aminoisobutyric Acid; SITE 10: note = 3-(4-Pyridyl)-L-alanine; SITE 13: note = alpha-methyl-leucine; SITE 16: note = L-ornithine; SITE 17: note = Lysine is chemically modified through conjugation of the epsilon-amino group of the Lysine side chain with (gamma-Gl)
Regarding B7, the cAMP Rel EC50, nM (1% HSA) in assay [1] stood at 528 nM; in assay [2], 85 nM; in assay [3], 1680 nM.

B8: Example 1063 (peptide)
chain: YXQGTFTSDXSXXLDXKAQXAFIEYLIAGGPSSGAPPPSGSEE
modifications: Lys acylated γGlu-C18 diacid; non-natural residues; C-amide; synthetic construct; SITE 2: note = 2-Aminoisobutyric Acid; SITE 10: note = 3-(4-Pyridyl)-L-alanine; SITE 12: note = L-ornithine; SITE 13: note = alpha-methyl-leucine; SITE 16: note = L-ornithine; SITE 17: note = Lysine is chemically modified through conjugation of the epsilon-amino group of the Lys
In the case of B8, the Relative cAMP EC50 amounted to 6.96 nM in assay [1], 0.318 nM in assay [2] and 10.6 nM in assay [3]. Besides, the figures for the cAMP Rel EC50 (1% HSA) in assay [1], in assay [2] and in assay [3] were 626 nM, 26.6 nM and 2290 nM, respectively.

B9: Example 1045 (peptide)
chain: YXQGTFTSDXSQXLDXKAQXQFIEXLIEGGPSSGAPPPSGSEE
modifications: non-natural residues; lipidated Lys AEEA-γGlu-C18 diacid; C-term amide; synthetic construct; SITE 2: note = 2-Aminoisobutyric Acid; SITE 10: note = 3-(4-Pyridyl)-L-alanine; SITE 13: note = alpha-methyl-leucine; SITE 16: note = L-ornithine; SITE 17: note = Lysine is chemically modified through conjugation of the epsilon-amino group of the Lysine side chain with (2-[2-(2-
In the case of B9, the cAMP Rel EC50, nM (1% HSA) in assay [1] was 276 nM; in assay [2] it was 107 nM; in assay [3], 1540 nM.

B10: Example 1062 (peptide)
chain: YXQGTFTSDXSXXLDXKAQXAFIEYLIAGGPSSGAPPPSGSEE
modifications: C-terminal amide; lysine acylated with (Glu)2-γ-Glu-C18 diacid; synthetic construct; SITE 2: note = 2-Aminoisobutyric Acid; SITE 10: note = 3-(4-Pyridyl)-L-alanine; SITE 12: note = L-ornithine; SITE 13: note = alpha-methyl-leucine; SITE 16: note = L-ornithine; SITE 17: note = Lysine is chemically modified through conjugation of the epsilon-amino group of the Lys
With B10, the Relative cAMP EC50 in assay [1] came out at 7.75 nM; in assay [2] it was 0.726 nM; in assay [3] it was 8.77 nM. Besides, the cAMP Rel EC50 (1% HSA) in assay [2] turned out to be 67.5 nM; in assay [3], 2380 nM.

B11: Example 1042 (peptide)
chain: YXQGTFTSDXSQXLDXKAQXAFIEXLIEGGPSSGAPPPSGSEE
modifications: not fully specified; non-natural residues; lipidated Lys; C-terminal amide; synthetic construct; SITE 2: note = 2-Aminoisobutyric Acid; SITE 10: note = 3-(4-Pyridyl)-L-alanine; SITE 13: note = alpha-methyl-leucine; SITE 16: note = L-ornithine; SITE 17: note = Lysine is chemically modified through conjugation of the epsilon-amino group of the Lysine side chain with (2-[2-(2-
With B11, the cAMP Rel EC50, nM (1% HSA) in assay [1] is 642 nM; in assay [2] it was 84.8 nM; in assay [3], 1890 nM.

B12: Example 1060 (peptide)
chain: YXQGTFTSDXSXXLDKKAQXAFIEYLIAGGPSSGAPPPSGSEE
modifications: Aib, 4Pal, Orn, αMeL, Me4Pal; acylated Lys; C-terminal amide; synthetic construct; SITE 2: note = 2-Aminoisobutyric Acid; SITE 10: note = 3-(4-Pyridyl)-L-alanine; SITE 12: note = L-ornithine; SITE 13: note = alpha-methyl-leucine; SITE 17: note = Lysine is chemically modified through conjugation of the epsilon-amino group of the Lysine side chain with (Glu)-(ga)
As for B12, the Relative cAMP EC50 in assay [1] was 2.85 nM; in assay [2] it was 0.223 nM; in assay [3] it was 9.08 nM. Moreover, the values for the cAMP Rel EC50 (1% HSA) in assay [2] and in assay [3] were 44.7 nM and 4900 nM, respectively.
